Data reported in the DeepSol protein solubility set.

test: soluble on expression in E. coli; label from the status in PepcDB or PDB records

Sequence | soluble on expression in E. coli
MGSDKIHHHHHHMIRAGIIGATGYTGLELVRLLKNHPEAKITYLSSRTYAGKKLEEIFPSTLENSILSEFDPEKVSKNCDVLFTALPAGASYDLVRELKGVKIIDLGADFRFDDPGVYREWYGKELSGYENIKRVYGLPELHREEIKNAQVVGNPGCYPTSVILALAPALKHNLVDPETILVDAKSGVSGAGRKEKVDYLFSEVNESLRPYNVAKHRHVPEMEQELGKISGKKVNVVFTPHLVPMTRGILSTIYVKTDKSLEEIHEAYLEFYKNEPFVHVLPMGIYPSTKWCYGSNHVFIGMQMEERTNTLILMSAIDNLVKGASGQAVQNMNIMFGLDETKGLEFTPIYP | soluble
MGSDKIHHHHHHMIRDNIMSQIDLPTDFDFQQAGRQVLEIEREGLAQLDQYINEDFTHACETIFRCGGKVVVMGMGKSGHIGRKMAATFASTGTSAFFVHPGEAAHGDLGMVTPQDVVIALSNSGESNEILALIPVLKRQQVKLICITSRPESSMARAADIHLCVKVPKEACPLGLAPTSSTTAALVMGDALAVALLEARGFTAEDFALSHPGGALGRKLLLRVNDIMHTGDEIPHVGLQATLRDALLEITRKNLGMTAICDDDMNIIGIFTDGDLRRVFDTGVDMRDASIADVMTRGGIRIRPGTLAVDALNLMQSRHITCVLVADGDHLLGVVHMHDLLRAGVV | not soluble
MGSDKIHHHHHHMIRVIDCTLREGCQARQCSFDSAQSVQLAREIAALGVDMIECGHPRISADERERVRAVVAAVSTPVLAHARARREDIDAVLETGAQWVGLFASINAISLETKFKGMNREEVLELFHDAIRYARERGLRVRATVEDAARTSVSDLVSMIATARDAGADRICFADSVGILLPDETFDVLSLLRHEFPDVVFEYHVHNDRGLALGNTLAAIQAGVQWHSASCNGIGERAGITDTFQLLTLLHTKFAADRFNLKNVLAVSELVEAHSRIKRSPMHPVVGENAFVHVARLHQLAMQENQDAYSAFDPELINGRVSLQRYTPMHRQSLFLTPFEKSASELKYHRHGPGKRFVMLDRRLLDGSPFYFIARQFHDVGDGGPGHVDSHVHNCDSVFLFLGSDEDYRGLEVEVLLGGQLRRLQSPASVFIPAGVEHSYRYLGGSGTYINFVHKGDYHESLLEITQ | not soluble
MGSDKIHHHHHHMITENIKKEILRRIRNAEKEHNVKVLYAVESGSRAWGFESPNSDYDVRFIYAHPKDWYVSVDLEYKRDVIEYEIVDEIDINGWDIRKALQLFSKSNPAFVEWIQSSIVYVDDHSFAKGARQLLDTVYSVEKGIYHYRSMAKTNYRGYLKEEIVPIKKYFYVLRPLLSIMWLEKYQKPAPIEFVKLRTLIPTGSTIDQAISDLLERKKRSLEKEYAPAVPVLNAFIESELDRLENYQDSPQRNSSHMESLNSLFRVSIS | not soluble
MGSDKIHHHHHHMITRIEAYKYRCFNTLDLALEQQHVFAGSNGSGKTTLLDIPALFGDLLNMSDINDAFFKPTNGRERARAESAKEVVHQLRGEYFILALEVSLPPSIIEELLRGASDAWQSKFQKSELRPDTARYEISFRINQDKFQVTEEHLTLFPNNELRPEHGMGLIGVDDFRRSAPWFKVLSRSLGTKVKYQAEYQAGKSSILEFGLRDNQLALAALPADHDLYPAALWLQEFLIQGSHCYEPQWPAMRLAASPRDKHAFKADGSSLPWQVHALQQSDPEGLNEWLELVQMALPSIAKIVAKQRIDDSFCYLEVTYSNGMVVPSSGLSHGTLHILALTIIPYLQNAPKIITLEEPENGIHPKAIDAVLEALKLTSDTQLWLSTHSPVVLANTEVEQIITMRFNQDGATEVLKGHEHPRLKTWKGEVDLGTLFAAGVLE | not soluble
MGSDKIHHHHHHMIVERVEEYLDRIEKINKDINALIEVKPEKVLEEAKKLEKDEKAKKKPLYGKIIVVKANINVEGYTISCASKTLENYIAPYDATVIEKIKENGGLIIGIANMDEFACGSSGETSYFGPTKNPRAKDRIPGGSSSGSAAAVSADLCDMALGSDTGGSIRNPASHCGVVGFKPSYGVVSRYGLCDLAMSFDQIGPLTKTAEDALLLTNIIKGKDLRDTTTVETKPFEKKDIKGFKVGVVKEFMDVADEKIRDKVEKAIEVFKDLGCEIVELSYKYVDLALPTYYLINYVEFFSSTRRYDGRRYGYKIEEVCGEEVLRRIMIGSMISQKEYSGKYYKNALKARNLMRNEMIKIMKDVDIIVGATVPKLPHKLGEKLTPMEMYSYDVLTVPANICGLCAGVVPCGDINGIPVGLQIQGKPFEDEKVLSAMIAFEKAME | not soluble
MGSDKIHHHHHHMIVRHKLLADLVRLWKNDQLVEKIDRLPIELSPRKSKPLGRCCVHKERAVWRYKTFPLMGLDMTDEHDEVTPLSEYARMALNRPEPSKENIMCVIDEACSSCVQINYEITNLCRGCVARSCYMNCPKDAIRFKKNGQAMIDHDTCVSCGICHKSCPYHAIVYIPVPCEESCPVKAISKDEHGVEHIDESKCIYCGKCMNACPFGAIFEISQTFDVLQHIKKGEKLVAIIAPSILGQFKTSIEQVYGAFKEIGFTDIIEVAEGAMMTTSNEAHELLEKLEEGQKFMTTSCCPSYIELVEKHMTEMKPYVSTTGSPMYYAARIAKEKHPDAKIVFVGPCVAKRKEVRRDDAVDYILTFEEVGSILDGMDIQLEQVNSFSILHTSVREAHGFAQAGGVMGAVKAYLKEEADKINAIQVSDINKKNIALLRACAKTGKAAGQFIEVMACEGGCITGPSTHNDIVSGRRQLAQELLKRKESYETMDR | not soluble
MGSDKIHHHHHHMIYKMTDKDMEILFERISKDFQSFGSKEENGDIVFGDIQRFSDISEEKSSYPPKDFLIERSENILSIPRAEKRAVFGVKSCDLRGFYIMDKQILGKDPFYTVKRENTMFINFVCEKMCSGGFCTSFGGPVLDEYDVQVLHKNGYFYVEASDKYEKYLFGFSESDDQNVFEEHKKEFESLYGRLNVDGIENRMKWSSNLWNKFANYCISCGACNYSCPTCYCVDVYDDDDGRKKEWDSCILEGFTRTAAGNVRPELSERLRQRFYHKFKYYKLSRGAYLCTGCNRCVDDCPVDIDIKEVITHDYDRE | not soluble
MGSDKIHHHHHHMIYLEQFTFPDGDRESIFFQDKVKRTCYDSYYPFQVLPGRGLERLDFDLITILYGGNGSGKSTLLNIIAEKTEIPRDAIYNKSNFFPDYVAMCEMQLKVFLPEHSRIITSDDVFDYMLNIRSLNEGIDRKREQLFDDYLEAKYSRFQLKSLADYEELKRVNHARFNSQSRFVRNELMDNAREYSNGENAFRYFTEKIDEKGLYLLDEPENSLSPKRQLELVQFIEDSARFWQCQFIIATHSPFLLALRGAKIYNLDETPVAVKRWTELENVRIYYDFFKKREREF | not soluble
MGSDKIHHHHHHMIYRNWLGIIGVACILFVSCKPTEVDVPITYYSSFLLKDTTVMLSKVEMDPMQVNARCMVWDGDKRVLVRTSTTDSIYAVFAYPEMKFLSYTGSLSEYKQILAECNEGFYLVKDDSLYLYHLTDKDLLQKTTTHFLYNSNKIRLSKIKKLNDKMYTAHAYTDPSYNDIRLNEFYMLDAENNILYPKGHYPERTEVRFKTIFDFKFAYAHEVWPKPDGSRILVNYVRTRRFRIYDLSARLLHDVCLDYASNKYVVDADPKRWTTFIRDCFVTDKYIYLLCPEGEQSSLVIVDWEGRPIARYRLDEKIFFFFIDPDRNLFCGINSNNGQSFYFLDLDIN | not soluble
MGSDKIHHHHHHMKAGLRIGLVGPLPPPSGGMANQTLQLAGLLREEHVEVELIQVNRPYRPGWIGRFKGIRAGFRLLSYVSQLWLSAGRVQLFHVMANSGWSWHLFAAPAIWIARLRGKPVIINYRGGEADSFFDKAFSWVKPSLSRANAIIVPSGFLEGVFGKRGFSASIVPNIIDLSRFGAGMRSDTSTVEAGPDSPHIIVTRNLEPIYDNETALRAFHIVRRSFPAAKLTLAGSGPERHTLEQLAFALGIGGAVTFTGRVDNEGMAAIYRSASVMLNPSLADNMPISILEALASGVPVVSTNVGGVPYLVEHEKNALLVPARDPQAMANAVLRLLNDAARTRRLIEAGMECVQRYTWPNVRVPLFRVYEQVLAAPDRSC | not soluble
MGSDKIHHHHHHMKATKRIAEATQESLHRIFTIAEAPDSTLGRLEQEMSQNLVGFLNNHIVASKNALTDIEQDFINARIPEQPEFVSDHMHHLLDKLVAQSVHTSSPSFIGHMTSALPSFILPLSKLMVGLNQNLVKVETSKAFTPLERQVLGMMHNLVYQHDDVFYKNWMHSAEHSLGAFCSGGTVANITALWVARNKLLKADGDFRGVAREGLHRAMRHYGYQDLAILVSDRGHYSLKKSADILGIGQENVIAIPTDEHNKIDCQKLADKCQQLAAQNIKVLAIVGVAGTTETGNIDPLDKIAEIAQQNQCHFHVDAAWGGATLLSNKYRPLLKGIEQADSVTIDAHKQMYVPMGAGLVIFKDPASVSAIEHHAEYILRKGSKDLGSHTLEGSRPGMAMLVYSSLHIISRPGYEMLINQAIEKAEYFADIIHQHDDFELITRPELCLLTYRYAPKSVQALLARNDDEANKSVNMLLGKLTKFIQKRQREDGRSFVSRTRIEVSRYGGEKVIVFRVVLANPLTTKEILQGILQEQCQLAQESEQFLPELLQAAK | not soluble
MGSDKIHHHHHHMKCSLGLEKCPDDTLRCFPKIEQPFGIVIFGASGDLTKRKLIPALNRLFEAGILPERFFVLGAARTKMDDKKFRSRFDANPDFLEHCSYISVDYQDPESFKQLKNTIETLIKRIDSSNLVFYLAVPPDLYIPILENLSKTGLNEKPARVVIEKPFGKDLESARRLEDTLQKYFQEDQIFRIDHYLGKETVQNILVFRFANFIFEEIWNNKFVDHVQITMAEDIGVEHRAGYFENVGLLRDIFQNHMLQILALIAMEPPSSFNGENFRNERVKLLRSIRPFPVEELESWIVRGQYGRGVVNGKEVPAYREEPGVAKDSNVETFVAMKLFIDNWRWSGVPFYLRSGKRLPKKITEVAVVFKKIPHSIFAGVPSDELEPNTIVFTLQPNEGISLEFQVKRPCPGMFPQLLSMDFRYEDYFGVKLPDAYERLLLDVILGDPTLFMRRDDLEVSWELLDPVLKAWENDPVRFSPYVYPAGTWGPREADLLIERDGRKWRKL | not soluble
MGSDKIHHHHHHMKDTNRTHSADAATVEEALAADNHQGIVDSEGATALAMQNTLLTPRFYTTDFDEMDSLDVSSVREDWDTLIAQMKSDPNKGHFKKNEDWDSVDWDGMEPALKREFIDFLVSSCTAEFSGCVLYKEMKRRGNNEDIVTLFQLMARDEARHAGFINDALREAGIAVNLGFLTQKKKYTYFRPKFIYYATYLSEKIGYARYITIFRHLEANPEHRFHPIFKWFREWCNDEFSHGEAFALIMKSDPKFTQKWQNKLWIKFFLTAVYSTMYVRDHQRPVFHAALGVDPDWYAHEVFTKTSEITKQIFPITLDIENPRWQRGLEAMQRANVDLADAKANGKLFKRIGASIRAGAAFVNLFTIPANKHDAPASVRLEPAY | not soluble
MGSDKIHHHHHHMKEAGILFEELVSIMEKLRSPEGCEWDRKQTHESLKPYLIEECYELIEAIDEKNDDMMKEELGDVLLQVVFHAQIARERGAFTIEDVIRTLNEKLIRRHPHVFGDSPGYSYKQWEDIKAQEKGKKKSSRIGEINPLVPALSMARRIQENASQVGFDWKDPEGVYEKIEEELKELKEAKDPRELEEEFGDLLFSIVNLSRFLNVDPESALRKATRKFVERFKKMEELIEKDGLVLEELPIEKLDEYWEKAKGGDET | not soluble
MGSDKIHHHHHHMKEQNNIPTSKVERATKFVQTGAKIGGNYIKHYAKKAFNPELTKEQLHEDNSKDVYETLSQLKGSALKVAQMLSQDKNMLPQAYVDKFTMAQYSAPPLSYPLVVKTFQKYFGKSPESMFDTFERNASNAASIGQVHKATKDGKVFAVKIQYPGVAESVSSDLKLVKPFALRLMNMKEKDLDMYMDEVESKLIEETDYELELRRSNEISTQCAHITGLVFPAYYPEYSSKRILTMDWLEGLHMKEFLATNPSQEIRNQIGQLLWDFYDFQMHQLRTVHADPHPGNFLMRSNGSLGVIDFGCVKEIPEEFYTEYFKLLNKEVIEDKTELLKTFERLNFFDAEDTALQREIFFDLFCEMTHLLGLPFYSETFDFSDDSYFKRIYDFGEHISNVKEIKDARQARGSRHGIYINRTYFGLYNLLNQLGANVRTKSYGEVAIEV | not soluble
